# Data reported in patent US20160264649A1.
# Columns and labels:
# Assay in all cases: cell-based or functional assay
# [1] = molecular target: HIV-1 98CN006 Env on pseudovirus (HIV-1)
# [2] = molecular target: HIV-1 MGRM-G-009 Env (HIV-1)
# [3] = molecular target: HIV-1 APV_17 Env on pseudovirus (HIV-1)
# [4] = molecular target: HIV-1 92BR020 Env (HIV-1)
# [5] = molecular target: HIV-1 MGRM-AE-006 Env (HIV-1)
# [6] = molecular target: HIV-1 MGRM-D-002 Env (HIV-1)
# [7] = molecular target: HIV-1 MGRM-C-009 Env on pseudovirus (HIV-1)
# [8] = molecular target: HIV-1 MGRM-C-002 Env on pseudovirus (HIV-1)
# [9] = molecular target: HIV-1 MGRM-G-016 Env (HIV-1)
# HIV-1 APV-6 Env (HIV-1) = molecular target: HIV-1 APV-6 Env (HIV-1)
# [10] = molecular target: HIV-1 MGRM-F1-017 Env (HIV-1)
# [11] = molecular target: HIV-1 MGRM-C-025 Env on pseudovirus (HIV-1)
# [12] = molecular target: HIV-1 MGRM-AE-007 Env (HIV-1)
# [13] = molecular target: HIV-1 MGRM-C-008 Env on pseudovirus (HIV-1)
# [14] = molecular target: HIV-1 MGRM-D-004 Env (HIV-1)
# [15] = molecular target: HIV-1 MGRM-AG-013 Env (HIV-1)
# [16] = molecular target: HIV-1 MGRM-Chronic-B-008 Env on pseudovirus (HIV-1)
# aMLV envelope = molecular target: aMLV envelope
# [17] = molecular target: HIV-1 VLGCB3 Env on pseudovirus (HIV-1)
# [18] = molecular target: HIV-1 MGRM-G-025 Env (HIV-1)
# [19] = molecular target: HIV-1 MGRM-Chronic-B-001 Env on pseudovirus (HIV-1)
# [20] = molecular target: HIV-1 MGRM-D-005 Env (HIV-1)
# [21] = molecular target: HIV-1 MGRM-C-020 Env on pseudovirus (HIV-1)
# [22] = molecular target: HIV-1 MGRM-C-012 Env on pseudovirus (HIV-1)
# [23] = molecular target: HIV-1 MGRM-D-008 Env (HIV-1)
# [24] = molecular target: HIV-1 MGRM-Chronic-B-023 Env on pseudovirus (HIV-1)
# [25] = molecular target: HIV-1 MGRM-G-013 Env (HIV-1)
# [26] = molecular target: HIV-1 MGRM-AE-008 Env (HIV-1)
# [27] = molecular target: HIV-1 94UG103 Env (HIV-1)
# [28] = molecular target: HIV-1 97ZA012 Env on pseudovirus (HIV-1)
# [29] = molecular target: HIV-1 MGRM-AE-002 Env (HIV-1)
# [30] = molecular target: HIV-1 MGRM-C-010 Env on pseudovirus (HIV-1)
# [31] = molecular target: HIV-1 MGRM-F1-004 Env (HIV-1)
# [32] = molecular target: HIV-1 MGRM-AG-011 Env (HIV-1)
# [33] = molecular target: HIV-1 92TH021 Env (HIV-1)
# [34] = molecular target: HIV-1 MGRM-AG-002 Env (HIV-1)
# [35] = molecular target: HIV-1 MGRM-C-019 Env on pseudovirus (HIV-1)
# [36] = molecular target: HIV-1 MGRM-Chronic-B-004 Env on pseudovirus (HIV-1)
# HIV-1 APV-17 Env (HIV-1) = molecular target: HIV-1 APV-17 Env (HIV-1)
# [37] = molecular target: HIV-1 MGRM-AG-005 Env (HIV-1)
# [38] = molecular target: HIV-1 MGRM-C-001 Env on pseudovirus (HIV-1)
# HIV-1 APV-13 Env (HIV-1) = molecular target: HIV-1 APV-13 Env (HIV-1)
# [39] = molecular target: HIV-1 MGRM-F1-018 Env (HIV-1)
# [40] = molecular target: HIV-1 MGRM-D-016 Env (HIV-1)
# [41] = molecular target: HIV-1 MGRM-G-015 Env (HIV-1)
# [42] = molecular target: HIV-1 MGRM-C-022 Env on pseudovirus (HIV-1)
# [43] = molecular target: HIV-1 MGRM-F1-015 Env (HIV-1)
# [44] = molecular target: HIV-1 MGRM-A-004 Env (HIV-1)
# [45] = molecular target: HIV-1 MGRM-A-008 Env (HIV-1)
# [46] = molecular target: HIV-1 MGRM-A-001 Env (HIV-1)
# [47] = molecular target: HIV-1 MGRM-A-005 Env (HIV-1)
# [48] = molecular target: HIV-1 MGRM-A-012 Env (HIV-1)
# 1443_C16 (PG16) (TCN-116) (antibody), sequence (VH): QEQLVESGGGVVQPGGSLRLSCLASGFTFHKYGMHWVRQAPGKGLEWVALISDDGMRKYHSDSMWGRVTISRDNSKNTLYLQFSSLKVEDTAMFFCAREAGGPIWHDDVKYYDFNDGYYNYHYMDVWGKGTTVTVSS
# 1443_C16 (PG16) (TCN-116) (antibody), sequence (VL): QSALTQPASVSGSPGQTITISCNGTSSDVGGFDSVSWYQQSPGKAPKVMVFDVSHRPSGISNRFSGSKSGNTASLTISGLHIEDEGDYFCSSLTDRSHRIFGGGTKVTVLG
substance,measurement,setting,value
4E10 (antibody),IC50,[1],1.91 µg/mL
same,"IC50 (µg/ml), pseudovirus neutralization",[2],1.34 µg/mL
same,IC50,[3],10.5 µg/mL
same,neutralization IC50,[4],41.4 µg/mL
same,neutralization IC90,[4],> 50 µg/mL
same,"IC50 (µg/ml), pseudovirus neutralization",[5],0.23 µg/mL
same,"IC50 (µg/ml), pseudovirus neutralization",[6],9.44 µg/mL
same,IC50,[7],0.56 µg/mL
same,IC50,[8],18.2 µg/mL
same,"IC50 (µg/ml), pseudovirus neutralization",[9],1.02 µg/mL
same,neutralization IC50,HIV-1 APV-6 Env (HIV-1),0.4 µg/mL
same,IC50 (pseudovirus neutralization),[10],4.92 µg/mL
same,IC50,[11],5.58 µg/mL
same,"IC50 (µg/ml), pseudovirus neutralization",[12],0.45 µg/mL
same,IC50,[13],2.97 µg/mL
same,"IC50 (µg/ml), pseudovirus neutralization",[14],1.58 µg/mL
same,"IC50 (µg/ml), pseudovirus neutralization",[15],2.61 µg/mL
same,IC50,[16],16.7 µg/mL
same,neutralization IC50,aMLV envelope,> 50 µg/mL
same,neutralization IC90,aMLV envelope,> 50 µg/mL
same,IC50,[17],5.76 µg/mL
same,"IC50 (µg/ml), pseudovirus neutralization",[18],1.7 µg/mL
same,IC50,[19],1.46 µg/mL
same,"IC50 (µg/ml), pseudovirus neutralization",[20],35.2 µg/mL
same,IC50,[21],2.8 µg/mL
same,IC50,[22],0.44 µg/mL
same,"IC50 (µg/ml), pseudovirus neutralization",[23],42.9 µg/mL
same,IC50,[24],27.9 µg/mL
same,"IC50 (µg/ml), pseudovirus neutralization",[25],1.15 µg/mL
same,"IC50 (µg/ml), pseudovirus neutralization",[26],0.94 µg/mL
same,neutralization IC50,[27],9.7 µg/mL
same,neutralization IC90,[27],> 50 µg/mL
same,IC50,[28],4.7 µg/mL
same,"IC50 (µg/ml), pseudovirus neutralization",[29],0.55 µg/mL
same,IC50,[30],11 µg/mL
same,IC50 (pseudovirus neutralization),[31],2.74 µg/mL
same,"IC50 (µg/ml), pseudovirus neutralization",[32],1.36 µg/mL
same,"IC50 (µg/ml), pseudovirus neutralization",[33],1.17 µg/mL
same,neutralization IC50,[33],1.9 µg/mL
same,neutralization IC90,[33],23.5 µg/mL
same,"IC50 (µg/ml), pseudovirus neutralization",[34],0.8 µg/mL
same,IC50,[35],3.49 µg/mL
same,IC50,[36],3.7 µg/mL
same,neutralization IC50,HIV-1 APV-17 Env (HIV-1),5.1 µg/mL
same,"IC50 (µg/ml), pseudovirus neutralization",[37],2.13 µg/mL
same,IC50,[38],5.66 µg/mL
same,neutralization IC50,HIV-1 APV-13 Env (HIV-1),3.8 µg/mL
same,IC50 (pseudovirus neutralization),[39],3.6 µg/mL
same,"IC50 (µg/ml), pseudovirus neutralization",[40],15.4 µg/mL
same,"IC50 (µg/ml), pseudovirus neutralization",[41],1.07 µg/mL
same,IC50,[42],5.71 µg/mL
same,IC50 (pseudovirus neutralization),[43],0.53 µg/mL
same,neutralization IC50,[44],3.14 µg/mL
same,neutralization IC50,[45],7.59 µg/mL
same,neutralization IC50,[46],15.1 µg/mL
same,neutralization IC50,[47],4.09 µg/mL
same,neutralization IC50,[48],4.27 µg/mL
1443_C16 (PG16) (TCN-116) (antibody),IC50,[1],> 50 µg/mL
same,"IC50 (µg/ml), pseudovirus neutralization",[2],> 50 µg/mL
same,IC50,[3],24.8 µg/mL
same,neutralization IC50,[4],> 50 µg/mL
same,neutralization IC90,[4],> 50 µg/mL
same,"IC50 (µg/ml), pseudovirus neutralization",[5],0.03 µg/mL
same,"IC50 (µg/ml), pseudovirus neutralization",[6],0.01 µg/mL
same,IC50,[7],> 50 µg/mL
same,IC50,[8],28.3 µg/mL
same,"IC50 (µg/ml), pseudovirus neutralization",[9],11.3 µg/mL
same,neutralization IC50,HIV-1 APV-6 Env (HIV-1),0.08 µg/mL
same,neutralization IC90,HIV-1 APV-6 Env (HIV-1),44.3 µg/mL
same,IC50 (pseudovirus neutralization),[10],> 50 µg/mL
same,IC50,[11],0.04 µg/mL
same,"IC50 (µg/ml), pseudovirus neutralization",[12],0.04 µg/mL
same,IC50,[13],> 50 µg/mL
same,"IC50 (µg/ml), pseudovirus neutralization",[14],0.01 µg/mL
same,"IC50 (µg/ml), pseudovirus neutralization",[15],0.31 µg/mL
same,IC50,[16],0.73 µg/mL
same,neutralization IC50,aMLV envelope,> 50 µg/mL
same,neutralization IC90,aMLV envelope,> 50 µg/mL
same,IC50,[17],0.4 µg/mL
same,"IC50 (µg/ml), pseudovirus neutralization",[18],> 50 µg/mL
same,IC50,[19],> 50 µg/mL
same,"IC50 (µg/ml), pseudovirus neutralization",[20],19.7 µg/mL
same,IC50,[21],> 50 µg/mL
same,IC50,[22],0.48 µg/mL
same,"IC50 (µg/ml), pseudovirus neutralization",[23],> 50 µg/mL
same,IC50,[24],0.13 µg/mL
same,"IC50 (µg/ml), pseudovirus neutralization",[25],> 50 µg/mL
same,"IC50 (µg/ml), pseudovirus neutralization",[26],3.25 µg/mL
same,neutralization IC50,[27],0.008 µg/mL
same,neutralization IC90,[27],1.59 µg/mL
same,IC50,[28],2.55 µg/mL
same,"IC50 (µg/ml), pseudovirus neutralization",[29],0.01 µg/mL
same,IC50,[30],> 50 µg/mL
same,IC50 (pseudovirus neutralization),[31],0.43 µg/mL
same,"IC50 (µg/ml), pseudovirus neutralization",[32],0.002 µg/mL
same,"IC50 (µg/ml), pseudovirus neutralization",[33],0.1 µg/mL
same,neutralization IC50,[33],0.127 µg/mL
same,neutralization IC90,[33],23.4 µg/mL
same,"IC50 (µg/ml), pseudovirus neutralization",[34],0.03 µg/mL
same,IC50,[35],0.002 µg/mL
same,IC50,[36],0.01 µg/mL
same,neutralization IC50,HIV-1 APV-17 Env (HIV-1),> 50 µg/mL
same,neutralization IC90,HIV-1 APV-17 Env (HIV-1),> 50 µg/mL
same,"IC50 (µg/ml), pseudovirus neutralization",[37],> 50 µg/mL
same,IC50,[38],16.8 µg/mL
same,neutralization IC50,HIV-1 APV-13 Env (HIV-1),> 50 µg/mL
same,neutralization IC90,HIV-1 APV-13 Env (HIV-1),> 50 µg/mL
same,IC50 (pseudovirus neutralization),[39],0.01 µg/mL
same,"IC50 (µg/ml), pseudovirus neutralization",[40],0.02 µg/mL
same,"IC50 (µg/ml), pseudovirus neutralization",[41],5.33 µg/mL
same,IC50,[42],0.25 µg/mL
same,IC50 (pseudovirus neutralization),[43],> 50 µg/mL
same,neutralization IC50,[44],0.04 µg/mL
same,neutralization IC50,[45],> 50 µg/mL
same,neutralization IC50,[46],> 50 µg/mL
same,neutralization IC50,[47],0.09 µg/mL
same,neutralization IC50,[48],20.7 µg/mL
